In article doi:10.1101/2024.08.03.606473:

What was measured:
[1] = target: SidF C-trim (residues 1-443) (Aspergillus fumigatus) (UniProt Q4WF55); assay: SEC
[2] = target: SidF C-trim (residues 1-443) (Aspergillus fumigatus) (UniProt Q4WF55); assay: SAXS

## SidF C-trim (residues 1-443) (from UniProt Q4WF55 1-443) (domain or fragment)
[1]
  stoichiometry N: 4
[2]
  stoichiometry N: 2
